Measured values: paper PMC5992146

How the values were obtained:
actin [1] = target: actin (UniProt P68135)
actin [2] = target: actin (UniProt P68135); assay: co-sedimentation; MYO3A (0.5 µM) equilibrated with actin (0-60 µM) in KMg50 buffer (50 mM KCl, 1 mM EGTA, 1 mM MgCl2, 10 mM imidazole pH 7.0, 1 mM DTT) with ATP regeneration system, 1 mM ATP added, centrifuged 10 min at 25 °C; fraction bound from GFP fluorescence of the supernatant and from Coomassie SDS-PAGE, hyperbolic fit; steady-state actin affinity (K_Actin) in the presence of ATP

K (ATPase): actin concentration at which the steady-state actin-activated ATPase activity is one-half maximal (KMg50 buffer, 25 °C) (actin [1])	Kd (actin [2])	Substance
1.93 µM	4.69 µM	MYO3AΔK 2IQ c-GFP WT (from UniProt Q8NEV4-1 1-1616) (domain or fragment)
< 0.77 µM	2.21 µM	MYO3AΔK 2IQ c-GFP L697W (from UniProt Q8NEV4-1 1-1616) (domain or fragment)
